From patent US20060110388A1 (APPLIED MOLECULAR EVOLUTION, published 2006)

What was measured:
[1] = target: T1, β Amyloid peptide 1-40 (human, UniProt P05067 672-711); assay: KinExA, mAb; against m266
T1 construct: domain: β Amyloid peptide 1-40; Biotinylated peptide 1-40 (Biosource) on avidin Sepharose only captured free antibody in KinExA; also called Aβ 1-40; human Aβ (1-40)
Experimental: (§1) Typical 1× concentrations were 10 pM of antibody active sites (0.75 ng/mL) and an upper antigen concentration of 100 pM (0.43 ng/mL). The samples were then allowed to equilibrate for 24-72 hours at room temperature. A KinExA™ instrument (Sapidyne) and standard KD run file were then used to determine the KD of the system. Briefly, the KinExA™ flow cell was charged with the β Amyloid peptide coated beads and washed with PBSA. For the first sample, free antibody in solution was captured by the beads washed with PBSA and detected using 1:250 Goat anti-human Cy5 (Jackson Immunochemicals) in PBSA. The flow cell was then flushed, re-charged with beads and the next sample analyzed. The process was repeated until all 12 samples were analyzed.

[2] = target: T1, β Amyloid peptide 1-40; assay: KinExA, mAb
Experimental: (§2) For KinExA™ kₒₙ and koff measurements, antigen and antibody were prepared as described above. Antigen and antibody samples at 2× active concentration were prepared in PBSA with 0.2% BSA. Samples were mixed 1:1 and the timing for the experiment started. Typical 1× concentrations were 1 nM antibody active site concentration ([…]) and 2 nM antigen (8.6 ng/mL). A KinExA™ instrument (Sapidyne) and a kineticsdirect run file were used to follow the reaction. Time for each measurement was determined using the manufacturer's instructions. Free antibody remaining in the reaction was captured using β amyloid coated beads packed into the flow cell washed with PBSA and detected at each time point using 1:250 Goat anti-human Cy5 (Jackson) in PBSA. The flow cell was then flushed and recharged with beads for the next measurement, the process continued until a complete decay curve obtained. The data was analyzed using the KinExA™ Inject software.
(§3) Association rate constants (kₒₙ) of m266 and antibodies of the present invention with Aβ were determined by KinExA™, using methods as described above in Example 1. The results of two separate kₒₙ determinations by KinExA™, in which separate preparations of antibodies were used, are provided in Tables 7 and 8.

[3] = target: T1, β Amyloid peptide 1-40; assay: BIAcore; against m266
Experimental: (§4) BIAcore™ is an automated biosensor system that measures molecular interactions (Karlsson, et al. (1991) J. Immunol. Methods 145: 229-240). BIAcore™ analyses described herein were carried out at 25° C. In these experiments, antibody was immobilized at low density on a BIAcore™ CM5 or B1 chip. For the m266 antibody goat anti-mouse Fc (Jackson Immunoresearch) immobilized on CM5 in flow cell 2 was used for measuring binding constants. Goat anti-mouse was used as control antibody in flow cell 1. For the humanized antibodies, protein A or protein A/G was immobilized via amine coupling to flow cells 1 and 2 of a B1 or CM5 sensor chip.
(§5) Antibody was then captured only to flow cell 2 at desired levels (usually a 10-60 second injection of antibody) and allowed to stabilize for 5 minutes. For these experiments, a fresh aliquot of Aβ 1-40 was thawed and then diluted 1:10 in HBS-EP running buffer. The 1:10 dilution was used to make up a 200 nM Aβ solution which was serially diluted (1:2 dilutions) to a lowest concentration of 6.25 nM. Each concentration was injected over the surface for 5 minutes at a flow rate of 50 μl/min (250 μl total). The Aβ and antibody were eluted from both flow cells with a 40s injection of glycine pH 1.5. The signal is allowed to stabilize for 2 minutes before the next cycle. The data from flow cell 1 is subtracted from flow cell 2 to account for any bulk shifts due to buffer differences or non-specific binding to the sensor chip or Protein A. The various concentrations were injected randomly and each concentration was run in duplicate. Two control runs of buffer only were used to control for any dissociation of antibody from the capture surface. The data was analyzed using the Biaevalution™ software. A 1:1 model with mass transfer and a local Rmax was used as the best fit for the data.
Concentrations of human Aβ (1-40) from 200 nM to 1.6 nM in 2-fold serial dilution were used to obtain on-rate constant. The upper half of Table 6 represents determinations made with a first set of antibody preparations, while the lower half represents determinations made with a second set of antibody preparations

[4] = target: T1, β Amyloid peptide 1-40; assay: KinExA, mAb, equilibration 16 h
Experimental: as §1, with “The samples were then allowed to equilibrate for 24-72 hours at room temperature.” left out
as §2

[5] = target: T1, β Amyloid peptide 1-40; assay: KinExA, mAb; remark: listed apart in the source
Experimental: as §1

[6] = target: T1, β Amyloid peptide 1-40; assay: BIAcore, mAb captured, Aβ 1-40 injected, first set of preparations
Experimental: as §4, §5
Concentrations of human Aβ (1-40) from 200 nM to 1.6 nM in 2-fold serial dilution were used to obtain on-rate constant. […]

[7] = target: T1, β Amyloid peptide 1-40; assay: KinExA, mAb; against m266; remark: listed apart in the source
Experimental: as §2, §3

T1 sequence (P05067 672-711 limits assumed): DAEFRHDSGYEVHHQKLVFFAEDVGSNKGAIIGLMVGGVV

Fold increase in affinity [1]: 0.11 fold
kon [2]: 630000 M⁻¹ s⁻¹
Fold Increase (kon) [3]: 5 fold
Kd [4]: 0.122 nM
koff [4]: 0.000214 s⁻¹
kon [4]: 1.76e+06 M⁻¹ s⁻¹
Kd [5]: 0.674 nM
kon [6]: 590000 M⁻¹ s⁻¹
Fold increase in kon [7]: 3 fold
B1: 1B7 monoclonal antibody (IgG1) (antibody, V domains shown)
VH: EVQLVESGGGLVKPGGSLRLSCAASGFTFSRYSMSWVRQAPGKGLEWVGQINSRGNSTYYPDTVKGRFTISRDDSKNTLYLQMNSLKTEDTAVYYCTTGDFWGQGTLVTVSS
VL: DIVMTQTPLSLSVTPGQPASISCRSSQSLIYSDGNAYLHWYLQKPGQSPQLLIYKVSNRFSGVPDRFSGSGSGTDFTLKISRVEAEDVGVYYCSQSTHSPWTFGGGTKVEIK
